According to patent US20100172835A1 (BURNHAM INSTITUTE FOR MEDICAL RESEARCH, published 2010):
Bridges are numbered along the chain shown (N, C = ends). Where no end group is shown, it is not given here.

Assays:
[1] = target: T1, gC1qR/p32 at the cell surface (human, UniProt Q07021 74-282); assay: LyP-1 phage binding to Raji cells pre-incubated with 40 µg/ml mAb; ligand blocked: LyP-1 phage
T1 construct: whole, on cells; also called cell surface p32
T1 sequence (looked up): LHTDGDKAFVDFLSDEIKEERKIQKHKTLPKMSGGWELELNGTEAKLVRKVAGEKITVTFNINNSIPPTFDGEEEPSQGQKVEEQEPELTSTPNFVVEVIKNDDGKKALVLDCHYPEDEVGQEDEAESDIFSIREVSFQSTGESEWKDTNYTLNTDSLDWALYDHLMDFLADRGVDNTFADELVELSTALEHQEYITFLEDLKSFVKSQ

[2] = target: T2, purified gC1qR/p32 protein (human, UniProt Q07021 74-282); assay: LyP-1 phage binding to wells coated with purified gC1qR/p32 with 20 µg/ml mAb; ligand blocked: LyP-1 phage
T2 construct: also called purified p32
T2 sequence (looked up): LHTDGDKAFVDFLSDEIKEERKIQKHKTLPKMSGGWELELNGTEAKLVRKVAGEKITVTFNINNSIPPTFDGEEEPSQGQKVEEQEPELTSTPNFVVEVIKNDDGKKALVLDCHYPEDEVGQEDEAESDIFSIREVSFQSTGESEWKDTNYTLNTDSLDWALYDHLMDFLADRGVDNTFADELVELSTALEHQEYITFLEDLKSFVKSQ

[3] = target: T1, gC1qR/p32 at the cell surface; assay: FACS of FITC-peptide on MDA-MB-435 cells transfected with p32 siRNA or control siRNA
Method: (§1) 48 hours after transfection, inhibition of p32 expression was checked by immunoblot analysis and immunostaining (upper panels). β-actin was used as a control. […] Cells incubated in the absence of peptide served as negative control. […] A representative experiment out of three is shown. C. […] Insertless phage was used to determine background phage binding.
(§2) MDA-MB-435 cells were transiently transfected with gC1qR/p32-specific or control siRNAs. […] The amount of fluorescence in living cells was analyzed by FACS. Cells incubated in the absence of peptide served as FITC negative control.

[4] = target: T1, gC1qR/p32 at the cell surface; assay: FACS of 10 µM FITC-LyP-1 on MDA-MB-435 S35 cells with p32 siRNA or control siRNA
Method: as §1, §2

[5] = target: T3, gC1qR/p32 from tumor cell extracts (human, UniProt Q07021 74-282); assay: pull-down from MDA-MB-435 extracts, anti-gC1qR/p32 immunoblot
T3 construct: mature; From xenograft extracts an additional 75 kD band was also identified as gC1qR/p32; also called gC1q/p32 receptor; p32/p33/gC1qR/HABP1
T3 sequence (looked up): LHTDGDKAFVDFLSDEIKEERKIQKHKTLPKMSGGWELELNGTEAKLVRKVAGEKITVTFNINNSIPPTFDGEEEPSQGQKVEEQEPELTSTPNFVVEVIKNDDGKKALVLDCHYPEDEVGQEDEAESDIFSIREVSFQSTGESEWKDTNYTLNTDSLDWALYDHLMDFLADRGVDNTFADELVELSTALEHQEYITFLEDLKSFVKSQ

[6] = target: T2, purified gC1qR/p32 protein; assay: phage binding to wells coated with purified gC1qR/p32, plaque assay
[7] = target: T1, gC1qR/p32 at the cell surface; assay: phage binding to C8161 cells transiently transfected with gC1qR/p32 cDNA
Method: as §1, with “A. C8161 cells were transiently transfected with pEGFP together with either empty pcDNA3.1 vector or p32 pcDNA3.1 vector. Transfected cells were sorted for EGFP expression and the sorted populations were used for phage binding assay and immunoblot analysis with anti-p32. […] 48” for “48”

αv integrins = assay: assay not described in the filing
[8] = target: T4, neuropilin-1 by forced expression on M21 cells (Homo sapiens (Human), UniProt O14786 22-923); assay: cell-based or functional assay
[9] = target: T4, neuropilin-1 by forced expression on …; assay: CRGDK phage binding to M21 cells transfected with neuropilin-1 cDNA, against untransfected or vector-only cells

T4 sequence (O14786 22-923 limits assumed, form in doubt): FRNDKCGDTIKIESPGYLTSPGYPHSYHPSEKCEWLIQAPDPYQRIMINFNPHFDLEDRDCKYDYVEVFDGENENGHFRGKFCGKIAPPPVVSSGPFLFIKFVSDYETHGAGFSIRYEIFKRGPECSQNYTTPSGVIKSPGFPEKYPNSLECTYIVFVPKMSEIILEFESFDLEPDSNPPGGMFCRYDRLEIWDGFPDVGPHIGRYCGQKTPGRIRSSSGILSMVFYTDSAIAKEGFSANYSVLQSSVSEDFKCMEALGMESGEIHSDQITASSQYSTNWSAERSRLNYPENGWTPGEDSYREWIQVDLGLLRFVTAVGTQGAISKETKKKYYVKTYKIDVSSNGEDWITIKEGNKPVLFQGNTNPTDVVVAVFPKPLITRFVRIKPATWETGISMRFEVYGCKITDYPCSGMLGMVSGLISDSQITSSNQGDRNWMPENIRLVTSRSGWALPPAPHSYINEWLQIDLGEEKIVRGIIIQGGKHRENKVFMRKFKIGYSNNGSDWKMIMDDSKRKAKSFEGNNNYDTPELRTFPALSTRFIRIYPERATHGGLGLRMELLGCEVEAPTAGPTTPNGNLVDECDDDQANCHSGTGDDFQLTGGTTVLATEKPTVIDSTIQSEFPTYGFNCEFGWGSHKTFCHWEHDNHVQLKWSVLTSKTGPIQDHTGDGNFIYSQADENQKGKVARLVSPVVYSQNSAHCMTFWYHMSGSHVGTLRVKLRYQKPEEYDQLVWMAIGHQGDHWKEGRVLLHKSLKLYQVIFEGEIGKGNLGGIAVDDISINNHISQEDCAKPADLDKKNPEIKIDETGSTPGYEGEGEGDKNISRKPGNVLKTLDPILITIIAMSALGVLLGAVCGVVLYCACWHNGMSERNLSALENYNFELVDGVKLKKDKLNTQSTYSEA

Molecule: mouse monoclonal 60.11 anti-gC1qR/p32 antibody
- reduction of LyP-1 binding [1]: 50%
- reduction of LyP-1 phage binding [2]: 90%

Molecule: ARALPSQRSR (also: FITC conjugated, position not given here) [FITC conjugated control peptide ARALPSQRSR]
- binding result [3]: no binding (tested: 10 µM)

B1: FITC conjugated LyP-1 peptide (peptide)
peptide: CGNKRTRGC
modifications: disulfide 1-9 (inferred); also: FITC conjugated, position not given here
notes: Used at 10 uM on cells at 4 C; also called FITC-LyP-1
- binding result [4]: binds

B2: biotinylated CREKA peptide (peptide)
peptide: CREKA
modifications: also: biotinylated, position not given here
notes: Negative control in the pull-down; also called control peptide
- binding result [5]: no binding

B3: LyP-1 phage (other, not shown: large carriers)
chain: CGNKRTRGC
modifications: cysteine pairing not given here; also: displayed on phage coat protein
notes: Phage displaying the LyP-1 peptide; also called Lyp-1 expressing phage
- fold binding over insertless control phage [6]: 60 fold
- fold binding over control phage [7]: 5 fold

Molecule: CRGDK [CRGDK fragment]
- fold reduction in affinity (against iRGD) (αv integrins): 50 to 150 fold

Molecule: CRGDK (other, also: displayed on T7 phage capsid protein, not shown: T7 phage capsid protein) [CRGDK phage]
- internalization of CRGDK phage into M21 cells [8]: 3.5 fold
- fold increase in binding upon forced expression of neuropilin-1 [9]: 3.5 fold

B4: biotinylated CRV peptide (peptide)
peptide: CRVRTRSGC
modifications: disulfide 1-9 (inferred); also: biotinylated, site not given here
notes: as for B2
- binding result [5]: no binding
